From paper PMC11241417

Target: URH1p riboside hydrolase from Saccharomyces cerevisiae (S. cerevisiae) (UniProt Q04179)
Assay: AUC; sedimentation velocity, absorbance 280 nm, 45,000 rpm; samples kept at 4 °C for two weeks; 2.6, 5.2, 10.4 and 15.6 µM; monomer to disulphide-linked dimer

- ratio between monomeric and dimeric URH1p in the sample: 33%
- stoichiometry N: 2
Substance: URH1p riboside hydrolase from Saccharomyces cerevisiae (from UniProt Q04179 2-340) (enzyme)
